{"source": "patent US6869925", "about": "(Amgen, dated 2005)", "key": {"[1]": {"target": "SLPI binding sites on HuT78 cells (human T cell line) (human)", "experiment": "125I-SLPI saturation binding, intact HuT78 cells, *SLPI at 80 pM"}, "[2]": {"target": "SLPI binding sites on U937 cells (human monocyte cell line; intact cells, PMA-induced cells or plasma membranes) (human)", "experiment": "125I-SLPI saturation binding, intact U937 cells, *SLPI at 640 pM"}, "[3]": {"target": "SLPI binding sites on HuT78 cells (human T cell line) (human)", "experiment": "125I-SLPI saturation binding, intact HuT78 cells, *SLPI at 320 pM"}, "[4]": {"target": "SLPI binding sites on HuT78 cells (human T cell line) (human)", "experiment": "125I-SLPI saturation binding, intact HuT78 cells, *SLPI at 640 pM"}, "[5]": {"target": "SLPI binding sites on U937 cells (human monocyte cell line; intact cells, PMA-induced cells or plasma membranes) (human)", "experiment": "competition with 125I-SLPI, intact U937 cells, competitor at 0 nM"}, "[6]": {"target": "SLPI binding sites on HuT78 cells (human T cell line) (human)", "experiment": "competition with 125I-SLPI, intact HuT78 cells, cold SLPI at 26 nM"}, "[7]": {"target": "SLPI binding sites on U937 cells (human monocyte cell line; intact cells, PMA-induced cells or plasma membranes) (human)", "experiment": "competition with 125I-SLPI, intact U937 cells, competitor at 26 nM"}, "[8]": {"target": "SLPI binding sites on U937 cells (human monocyte cell line; intact cells, PMA-induced cells or plasma membranes) (human)", "experiment": "competition with 125I-SLPI, intact U937 cells, competitor at 84 nM"}, "[9]": {"target": "SLPI binding sites on U937 cells (human monocyte cell line; intact cells, PMA-induced cells or plasma membranes) (human)", "experiment": "125I-SLPI saturation binding, U937 cells minus PMA, *SLPI at 320 pM"}, "[10]": {"target": "SLPI binding sites on HuT78 cells (human T cell line) (human)", "experiment": "competition with 125I-SLPI, intact HuT78 cells, cold SLPI at 2.6 nM"}, "[11]": {"target": "SLPI binding sites on U937 cells (human monocyte cell line; intact cells, PMA-induced cells or plasma membranes) (human)", "experiment": "competition with 125I-SLPI, intact U937 cells, cold SLPI at 0.25 nM"}, "[12]": {"target": "SLPI binding sites on HuT78 cells (human T cell line) (human)", "experiment": "competition with 125I-SLPI, intact HuT78 cells, Kd by Cheng-Prusoff"}, "[13]": {"target": "SLPI binding sites on HuT78 cells (human T cell line) (human)", "experiment": "125I-SLPI saturation binding, intact HuT78 cells, *SLPI at 20,480 pM"}, "[14]": {"target": "SLPI binding sites on U937 cells (human monocyte cell line; intact cells, PMA-induced cells or plasma membranes) (human)", "experiment": "125I-SLPI saturation binding, U937 cells plus PMA, *SLPI at 2,560 pM"}, "[15]": {"target": "SLPI binding sites on U937 cells (human monocyte cell line; intact cells, PMA-induced cells or plasma membranes) (human)", "experiment": "125I-SLPI saturation binding, U937 cells plus PMA, *SLPI at 5,120 pM"}, "[16]": {"target": "SLPI binding sites on HuT78 cells (human T cell line) (human)", "experiment": "competition with 125I-SLPI, intact HuT78 cells, cold SLPI at 0.25 nM"}, "[17]": {"target": "SLPI binding sites on U937 cells (human monocyte cell line; intact cells, PMA-induced cells or plasma membranes) (human)", "experiment": "competition with 125I-SLPI, intact U937 cells, cold SLPI at 0.024 nM"}, "[18]": {"target": "SLPI binding sites on U937 cells (human monocyte cell line; intact cells, PMA-induced cells or plasma membranes) (human)", "experiment": "competition with 125I-SLPI, intact U937 cells, competitor at 2750 nM"}, "[19]": {"target": "SLPI binding sites on HuT78 cells (human T cell line) (human)", "experiment": "competition with 125I-SLPI, intact HuT78 cells, competitor at 8.2 nM"}, "[20]": {"target": "SLPI binding sites on U937 cells (human monocyte cell line; intact cells, PMA-induced cells or plasma membranes) (human)", "experiment": "125I-SLPI saturation binding, U937 cells plus PMA, *SLPI at 20,480 pM"}, "[21]": {"target": "SLPI binding sites on HuT78 cells (human T cell line) (human)", "experiment": "competition with 125I-SLPI, intact HuT78 cells, cold SLPI at 0.078 nM"}, "[22]": {"target": "SLPI binding sites on HuT78 cells (human T cell line) (human)", "experiment": "competition with 125I-SLPI, intact HuT78 cells, competitor at 2750 nM"}, "[23]": {"target": "SLPI binding sites on U937 cells (human monocyte cell line; intact cells, PMA-induced cells or plasma membranes) (human)", "experiment": "125I-SLPI saturation binding, U937 cells minus PMA, *SLPI at 10,240 pM"}, "[24]": {"target": "SLPI binding sites on U937 cells (human monocyte cell line; intact cells, PMA-induced cells or plasma membranes) (human)", "experiment": "Scatchard plot of 125I-SLPI saturation binding, non-induced U937 cells"}, "[25]": {"target": "SLPI binding sites on U937 cells (human monocyte cell line; intact cells, PMA-induced cells or plasma membranes) (human)", "experiment": "competition with 125I-SLPI, U937 plasma membranes, competitor at 2.56 nM"}, "[26]": {"target": "SLPI binding sites on U937 cells (human monocyte cell line; intact cells, PMA-induced cells or plasma membranes) (human)", "experiment": "competition with 125I-SLPI, U937 plasma membranes, competitor at 83.9 nM"}}}
{"substance": "serine leukocyte protease inhibitor (SLPI) (from UniProt P03973 26-132)", "values": [{"measurement": "bound pM", "setting": "[1]", "result": 0.75, "unit": "pM"}, {"measurement": "bound per free", "setting": "[1]", "result": 0.0095}, {"measurement": "sites bound per cell (sites per cell)", "setting": "[1]", "result": 45}, {"measurement": "specific cpm", "setting": "[1]", "result": 30, "unit": "cpm"}, {"measurement": "bound *SLPI (pM)", "setting": "[2]", "result": 116, "unit": "pM"}, {"measurement": "bound per free", "setting": "[2]", "result": 0.221}, {"measurement": "sites bound per cell (sites per cell)", "setting": "[2]", "result": 6990}, {"measurement": "specific cpm", "setting": "[2]", "result": 4630, "unit": "cpm"}, {"measurement": "bound pM", "setting": "[3]", "result": 2.53, "unit": "pM"}, {"measurement": "bound per free", "setting": "[3]", "result": 0.0079}, {"measurement": "sites bound per cell (sites per cell)", "setting": "[3]", "result": 152}, {"measurement": "specific cpm", "setting": "[3]", "result": 101, "unit": "cpm"}, {"measurement": "bound pM", "setting": "[4]", "result": 2.53, "unit": "pM"}, {"measurement": "bound per free", "setting": "[4]", "result": 0.0039}, {"measurement": "sites bound per cell (sites per cell)", "setting": "[4]", "result": 152}, {"measurement": "specific cpm", "setting": "[4]", "result": 101, "unit": "cpm"}, {"measurement": "% *SLPI BOUND", "setting": "[5]", "result": 109, "unit": "%"}, {"measurement": "% *SLPI BOUND", "setting": "[6]", "result": 37, "unit": "%"}, {"measurement": "% *SLPI BOUND", "setting": "[7]", "result": 11, "unit": "%"}, {"measurement": "% *SLPI BOUND", "setting": "[8]", "result": 7, "unit": "%"}, {"measurement": "bound *SLPI (pM)", "setting": "[9]", "result": 101, "unit": "pM"}, {"measurement": "bound per free", "setting": "[9]", "result": 0.461}, {"measurement": "sites bound per cell (sites per cell)", "setting": "[9]", "result": 6080}, {"measurement": "specific cpm", "setting": "[9]", "result": 1080, "unit": "cpm"}, {"measurement": "% *SLPI BOUND", "setting": "[10]", "result": 56, "unit": "%"}, {"measurement": "% *SLPI BOUND", "setting": "[11]", "result": 92, "unit": "%"}, {"measurement": "Kd", "setting": "[12]", "result": 2, "unit": "nM"}, {"measurement": "bound pM", "setting": "[13]", "result": 30.3, "unit": "pM"}, {"measurement": "bound per free", "setting": "[13]", "result": 0.0015}, {"measurement": "sites bound per cell (sites per cell)", "setting": "[13]", "result": 1820}, {"measurement": "specific cpm", "setting": "[13]", "result": 1210, "unit": "cpm"}, {"measurement": "bound pM", "setting": "[14]", "result": 215, "unit": "pM"}, {"measurement": "bound per free", "setting": "[14]", "result": 0.092}, {"measurement": "sites bound per cell (sites per cell)", "setting": "[14]", "result": 12900}, {"measurement": "specific cpm", "setting": "[14]", "result": 2300, "unit": "cpm"}, {"measurement": "bound pM", "setting": "[15]", "result": 135, "unit": "pM"}, {"measurement": "bound per free", "setting": "[15]", "result": 0.027}, {"measurement": "sites bound per cell (sites per cell)", "setting": "[15]", "result": 8130}, {"measurement": "specific cpm", "setting": "[15]", "result": 1440, "unit": "cpm"}, {"measurement": "% *SLPI BOUND", "setting": "[16]", "result": 69, "unit": "%"}, {"measurement": "% *SLPI BOUND", "setting": "[17]", "result": 100, "unit": "%"}, {"measurement": "% *SLPI BOUND", "setting": "[18]", "result": 4, "unit": "%"}, {"measurement": "% *SLPI BOUND", "setting": "[19]", "result": 57, "unit": "%"}, {"measurement": "bound pM", "setting": "[20]", "result": 255, "unit": "pM"}, {"measurement": "bound per free", "setting": "[20]", "result": 0.0126}, {"measurement": "sites bound per cell (sites per cell)", "setting": "[20]", "result": 15400}, {"measurement": "specific cpm", "setting": "[20]", "result": 2720, "unit": "cpm"}, {"measurement": "% *SLPI BOUND", "setting": "[21]", "result": 90, "unit": "%"}, {"measurement": "% *SLPI BOUND", "setting": "[22]", "result": 0, "unit": "%"}, {"measurement": "bound *SLPI (pM)", "setting": "[23]", "result": 844, "unit": "pM"}, {"measurement": "bound per free", "setting": "[23]", "result": 0.09}, {"measurement": "sites bound per cell (sites per cell)", "setting": "[23]", "result": 50800}, {"measurement": "specific cpm", "setting": "[23]", "result": 9020, "unit": "cpm"}, {"measurement": "Kd", "setting": "[24]", "result": 1.1, "unit": "nM"}, {"measurement": "CPM *SLPI BOUND", "setting": "[25]", "result": 11000, "unit": "cpm"}, {"measurement": "CPM *SLPI BOUND", "setting": "[26]", "result": 2070, "unit": "cpm"}]}
